Data reported in publication PMC5405513, “Identification and biochemical characterization of the fructokinase gene family in Arabidopsis thaliana” (BMC Plant Biology, 2017).

Assays:
Assay in all cases: coupled pyruvate kinase / lactate dehydrogenase assay, NADH oxidation at A340
Type in all cases: biochemical, Arabidopsis thaliana
Settings in all cases: 50 mM Tris pH 7.5, 100 mM KCl, 10 mM MgCl2, 1 mM fructose, 10 mM phosphate, Michaelis-Menten fit
[1] = substrate: Nc1ncnc2c1ncn2[C@@H]1O[C@H](COP(=O)(O)OP(=O)(O)OP(=O)(O)O)[C@@H](O)[C@H]1O
Excerpt: coupled pyruvate kinase / lactate dehydrogenase assay, NADH oxidation at A340 on FRK2

[2] = substrate: Nc1ncnc2c1ncn2[C@@H]1O[C@H](COP(=O)(O)OP(=O)(O)OP(=O)(O)O)[C@@H](O)[C@H]1O; remark: listed apart in the source
Excerpt: coupled pyruvate kinase / lactate dehydrogenase assay, NADH oxidation at A340 on FRK3

[3] = substrate: Nc1ncnc2c1ncn2[C@@H]1O[C@H](COP(=O)(O)OP(=O)(O)OP(=O)(O)O)[C@@H](O)[C@H]1O; remark: listed apart in the source
Excerpt: coupled pyruvate kinase / lactate dehydrogenase assay, NADH oxidation at A340 on FRK4

[4] = substrate: Nc1ncnc2c1ncn2[C@@H]1O[C@H](COP(=O)(O)OP(=O)(O)OP(=O)(O)O)[C@@H](O)[C@H]1O; remark: listed apart in the source
Excerpt: coupled pyruvate kinase / lactate dehydrogenase assay, NADH oxidation at A340 on FRK5

[5] = substrate: Nc1ncnc2c1ncn2[C@@H]1O[C@H](COP(=O)(O)OP(=O)(O)OP(=O)(O)O)[C@@H](O)[C@H]1O; remark: listed apart in the source
Excerpt: coupled pyruvate kinase / lactate dehydrogenase assay, NADH oxidation at A340 on FRK6

[6] = substrate: Nc1ncnc2c1ncn2[C@@H]1O[C@H](COP(=O)(O)OP(=O)(O)OP(=O)(O)O)[C@@H](O)[C@H]1O; remark: listed apart in the source
Excerpt: coupled pyruvate kinase / lactate dehydrogenase assay, NADH oxidation at A340 on FRK1

B1: FRK2 (Arabidopsis thaliana) (protein)
chain: MASNGDKGLIVSFGEMLIDFVPTESGVSLAEAPGFLKAPGGAPANVAIAVSRLGGRSAFVGKLGDDEFGHMLAGILRKNGVDDQGINFDTGARTALAFVTLRADGDREFMFYRNPSADMLLRPDELNLDLIRSAKVFHYGSISLIVEPCRSAHLKAMEVAKEAGALLSYDPNLREPLWPSKEEAKTQIMSIWDKAEIIKVSDVELEFLTGSNKIDDETALTLWHPNLKLLLVTLGEKGCRYYTKTFKGAVDPFHVNAVDTTGAGDSFVGALLNQIVDDRSVLEDEERLRKVLRFANACGAITTTKKGAIPALPSDAEVRSFLEKK
Km [1]: 85 ± 8.7 µM | kcat [1]: 10.3 s⁻¹

B2: FRK3 (Arabidopsis thaliana) (protein)
chain: SNLKGRALSSDGSTQESPYVVCFGEMLIDFVPTTSGLSLADAPAFKKAPGGAPANVAVGIARLGGSSAFIGKVGEDEFGYMLANILKDNNVNNDGMRFDPGARTALAFVTLTNEGEREFMFYRNPSADMLLEESELDFDLIKKAKIFHYGSISLITEPCKSAHISAAKAAKEAGVILSYDPNLRLPLWPSADNAREEILSIWETADIIKISEEEIVFLTKGEDPYDDNVVRKLFHPKLKLLLVTEGPEGCRYYTKDFSGRVHGLKVDVVDTTGAGDAFVAGILSQLANDLSLLQDEERLREALMFANACGALTVKVRGAIPALPTKEAVHEALLKAVV
Km [2]: 52 ± 9.8 µM | kcat [2]: 14.3 s⁻¹

B3: FRK4 (Arabidopsis thaliana) (protein)
chain: MANTPLIVSFGEMLIDFVPDTSGVSLAESTGFLKAPGGAPANVACAITKLGGKSAFIGKFGDDEFGHMLVNILKKNGVNSEGVCFDTNARTALAFVTLKKDGEREFMFYRNPSADMLLKESELNKDLIKKAKIFHYGSISLISEPCRTAHMAAMKTAKDAGVLLSYDPNVRLPLWPSTEAAIEGIKSIWNEADIIKVSDDEVTFLTRGDAEKDDVVLSLMHDKLKLLIVTDGEKGCRYYTKKFKGRVPGYAVKAVDTTGAGDSFVGAFLVSLGKDGSILDDEGKLKEALAFANACGAVCTTQKGAIPALPTPADAQKLMKSKSK
Km [3]: 95 ± 7.9 µM | kcat [3]: 11.1 s⁻¹

B4: FRK5 (Arabidopsis thaliana) (protein)
chain: MASSTGEKGLIVSFGEMLIDFVPTVSGVSLSESPGFLKAPGGAPANVAIAVSRLGGRAAFVGKLGDDDFGHMLAGILRKNGVDDQGINFDEGARTALAFVTLRSDGEREFMFYRNPSADMLLRPDELNLELIRSAKVFHYGSISLITEPCRSAHMKAMEVAKEAGALLSYDPNLREPLWPSPEEARTQIMSIWDKADIIKVSDVELEFLTENKTMDDKTAMSLWHPNLKLLLVTLGEKGCTYFTKKFHGSVETFHVDAVDTTGAGDSFVGALLQQIVDDQSVLEDEARLRKVLRFANACGAITTTKKGAIPALPTDIEALSFLKDQKKRQTNLKFSKWCCTASPC
Km [4]: 180 ± 57 µM | kcat [4]: 4.8 s⁻¹

B5: FRK6 (Arabidopsis thaliana) (protein)
chain: MTSSNGDNKGLVVSFGEMLIDFVPTESGVSLSESSGFLKAPGGAPANVAIAVSRLGGRAAFVGKLGDDEFGHMLAGILRKNDVDDQGINFDKGARTALAFVTLRSDGEREFMFYRNPSADMLLRPDELNLELIRSAKVFHYGSISLITEPCRSAHMKAMEVAKEAGALLSYDPNLREPLWPSPEEARKQIMSIWDKADIIKVSDVELEFLTGNKTIDDETAMSLWHPNLKLLLVTLGENGCRYYTKDFHGSVETFHVDAVDTTGAGDSFVGALLNQIVDDQSVLEEEERLRKVLRFANACGAITTTKKGAIPALPTDCEALSFLKIQVE
Km [5]: 160 ± 21 µM | kcat [5]: 12.8 s⁻¹

B6: FRK1 (Arabidopsis thaliana) (protein)
chain: MGEDAISGNLKNLTIDTRDSETLVVCFGEMLIDFVPTVGGVSLAEAPAFKKAPGGAPANVAVGVSRLGGSSAFIGKVGDDEFGRMLADILRLNNVDNSGMRFDHNARTALAFVTLRGDGEREFLFFRHPSADMLLLESELDKNLIQKAKIFHYGSISLIEEPCRSTQLVAMKIAKAAGSLLSYDPNLRLPLWPSEEAARKEIMSIWNLADVIKISEDEITFLTGGDDPYDDDVVLQKLFHPNLKLLVVSEGPNGCRYYTQEFKGRVGGVKVKPVDTTGAGDAFVSGLLNSLASDLTLLKDEKKLREALLFANACGAITVTERGAIPAMPSMDAVQDLLSSTRS
Km [6]: 52 ± 7.8 µM | kcat [6]: 14.2 s⁻¹
